Where two headings read alike, the source gives them in different places.
What was measured:
[1] = biological target: PtuA (Escherichia coli Septu system) (Escherichia coli (strain ATCC 25922)); assay: cryo-EM structure
[2] = biological target: PtuA (Escherichia coli Septu system) (Escherichia coli (strain ATCC 25922)); assay: cryo-EM structure; remark: listed apart in the source
[3] = biological target: PtuA L81R mutant (Escherichia coli (strain ATCC 25922)); assay: mass photometry

Substance: PtuA (Escherichia coli Septu system) (natural protein)
- stoichiometry N [1]: 6
- stoichiometry N [2]: 6

Substance: PtuA L81R mutant (natural protein)
- stoichiometry N [3]: 2

— article PMC12318543
